± gives the uncertainty stated by the source.

These results are taken from the Human Domainome abundance scans (Beltran et al. 2025).

B1: Storkhead-box protein 2, residues 64 to 141; numbered along this chain, Q9P2F5 (parent)
chain: SPISQSQFIPLGEILCLAISAMNSARKPVTQEALMEHLTTCFPGVPTPSQEILRHTLNTLVRERKIYPTPDGYFIVTP

In this series the parent is B1. In words: abundance fitness (aPCA) (normalised: wild type 0, dead -1); higher = more abundant; growth selection in yeast, the domain comes from the species named. As to conditions: Homo sapiens.
With SPISQSQFIWLGEILCLAISAMNSARKPVTQEALMEHLTTCFPGVPTPSQEILRHTLNTLVRERKIYPTPDGYFIVTP [P10W], the abundance fitness is 0.175 ± 0.076. As for SPISQSQFIHLGEILCLAISAMNSARKPVTQEALMEHLTTCFPGVPTPSQEILRHTLNTLVRERKIYPTPDGYFIVTP [P10H], the abundance fitness was -0.101 ± 0.099. As to SPISQSQFITLGEILCLAISAMNSARKPVTQEALMEHLTTCFPGVPTPSQEILRHTLNTLVRERKIYPTPDGYFIVTP [P10T], the abundance fitness was -0.024 ± 0.11. Consider SPISQSQFIKLGEILCLAISAMNSARKPVTQEALMEHLTTCFPGVPTPSQEILRHTLNTLVRERKIYPTPDGYFIVTP [P10K], for which the abundance fitness was 0.016 ± 0.11.

Regarding SPISQSQFIYLGEILCLAISAMNSARKPVTQEALMEHLTTCFPGVPTPSQEILRHTLNTLVRERKIYPTPDGYFIVTP [P10Y], the abundance fitness came out at 0.003 ± 0.23. To SPISQSQFIILGEILCLAISAMNSARKPVTQEALMEHLTTCFPGVPTPSQEILRHTLNTLVRERKIYPTPDGYFIVTP [P10I] belongs 0.302 ± 0.4; to SPISQSQFISLGEILCLAISAMNSARKPVTQEALMEHLTTCFPGVPTPSQEILRHTLNTLVRERKIYPTPDGYFIVTP [P10S], -0.067 ± 0.047. To SPISQSQFIMLGEILCLAISAMNSARKPVTQEALMEHLTTCFPGVPTPSQEILRHTLNTLVRERKIYPTPDGYFIVTP [P10M] belongs 0.048 ± 0.17. To SPISQSQFINLGEILCLAISAMNSARKPVTQEALMEHLTTCFPGVPTPSQEILRHTLNTLVRERKIYPTPDGYFIVTP [P10N] belongs 0.108 ± 0.12. For the variant SPISQSQFIVLGEILCLAISAMNSARKPVTQEALMEHLTTCFPGVPTPSQEILRHTLNTLVRERKIYPTPDGYFIVTP [P10V], the abundance fitness came out at 0.171 ± 0.063.

Take SPISQSQFIRLGEILCLAISAMNSARKPVTQEALMEHLTTCFPGVPTPSQEILRHTLNTLVRERKIYPTPDGYFIVTP [P10R]: the abundance fitness is 0.089 ± 0.04. For SPISQSQFILLGEILCLAISAMNSARKPVTQEALMEHLTTCFPGVPTPSQEILRHTLNTLVRERKIYPTPDGYFIVTP [P10L], the abundance fitness came to 0.085 ± 0.047. Consider SPISQSQFIPLGCILCLAISAMNSARKPVTQEALMEHLTTCFPGVPTPSQEILRHTLNTLVRERKIYPTPDGYFIVTP [E13C], for which the abundance fitness is -0.152 ± 0.081. Turning to SPISQSQFIPLAEILCLAISAMNSARKPVTQEALMEHLTTCFPGVPTPSQEILRHTLNTLVRERKIYPTPDGYFIVTP [G12A], the abundance fitness is -0.3 ± 0.29. SPISQSQFIPLCEILCLAISAMNSARKPVTQEALMEHLTTCFPGVPTPSQEILRHTLNTLVRERKIYPTPDGYFIVTP [G12C]: the abundance fitness was -0.135 ± 0.32.

For SPISQSQFIPLVEILCLAISAMNSARKPVTQEALMEHLTTCFPGVPTPSQEILRHTLNTLVRERKIYPTPDGYFIVTP [G12V], the abundance fitness was -0.452 ± 0.2. Take SPISQSQFIPLDEILCLAISAMNSARKPVTQEALMEHLTTCFPGVPTPSQEILRHTLNTLVRERKIYPTPDGYFIVTP [G12D]: the abundance fitness was -0.127 ± 0.33.

In the case of SPISQSQFIPKGEILCLAISAMNSARKPVTQEALMEHLTTCFPGVPTPSQEILRHTLNTLVRERKIYPTPDGYFIVTP [L11K], the abundance fitness was -0.51 ± 0.1. Then SPISQSQFIPPGEILCLAISAMNSARKPVTQEALMEHLTTCFPGVPTPSQEILRHTLNTLVRERKIYPTPDGYFIVTP [L11P], with -0.299 ± 0.074. Turning to SPISQSQFIPTGEILCLAISAMNSARKPVTQEALMEHLTTCFPGVPTPSQEILRHTLNTLVRERKIYPTPDGYFIVTP [L11T], the abundance fitness is -0.278 ± 0.082.

On to SPISQSQFIPHGEILCLAISAMNSARKPVTQEALMEHLTTCFPGVPTPSQEILRHTLNTLVRERKIYPTPDGYFIVTP [L11H], for which the abundance fitness was -0.051 ± 0.22. Then SPISQSQFIPSGEILCLAISAMNSARKPVTQEALMEHLTTCFPGVPTPSQEILRHTLNTLVRERKIYPTPDGYFIVTP [L11S], with -0.396 ± 0.056. Turning to SPISQSQFIPDGEILCLAISAMNSARKPVTQEALMEHLTTCFPGVPTPSQEILRHTLNTLVRERKIYPTPDGYFIVTP [L11D], the abundance fitness was -0.316 ± 0.13.

On to SPISQSQFIPCGEILCLAISAMNSARKPVTQEALMEHLTTCFPGVPTPSQEILRHTLNTLVRERKIYPTPDGYFIVTP [L11C], for which the abundance fitness was -0.62 ± 0.24. As for SPISQSQFIPFGEILCLAISAMNSARKPVTQEALMEHLTTCFPGVPTPSQEILRHTLNTLVRERKIYPTPDGYFIVTP [L11F], the abundance fitness worked out at 0.054 ± 0.12. Then SPISQSQFIPEGEILCLAISAMNSARKPVTQEALMEHLTTCFPGVPTPSQEILRHTLNTLVRERKIYPTPDGYFIVTP [L11E], with -0.325 ± 0.091; and SPISQSQFIPQGEILCLAISAMNSARKPVTQEALMEHLTTCFPGVPTPSQEILRHTLNTLVRERKIYPTPDGYFIVTP [L11Q], with -0.32 ± 0.095. To SPISQSQFIPGGEILCLAISAMNSARKPVTQEALMEHLTTCFPGVPTPSQEILRHTLNTLVRERKIYPTPDGYFIVTP [L11G] belongs -0.277 ± 0.05. Then SPISQSQFIPIGEILCLAISAMNSARKPVTQEALMEHLTTCFPGVPTPSQEILRHTLNTLVRERKIYPTPDGYFIVTP [L11I], with -0.096 ± 0.22; and SPISQSQFIPNGEILCLAISAMNSARKPVTQEALMEHLTTCFPGVPTPSQEILRHTLNTLVRERKIYPTPDGYFIVTP [L11N], with -0.466 ± 0.21; and SPISQSQFIPRGEILCLAISAMNSARKPVTQEALMEHLTTCFPGVPTPSQEILRHTLNTLVRERKIYPTPDGYFIVTP [L11R], with -0.428 ± 0.05.

As to SPISQSQFIPAGEILCLAISAMNSARKPVTQEALMEHLTTCFPGVPTPSQEILRHTLNTLVRERKIYPTPDGYFIVTP [L11A], the abundance fitness is -0.258 ± 0.033. To SPISQSQFIPVGEILCLAISAMNSARKPVTQEALMEHLTTCFPGVPTPSQEILRHTLNTLVRERKIYPTPDGYFIVTP [L11V] belongs -0.163 ± 0.064. For the variant SPISQSQFIPWGEILCLAISAMNSARKPVTQEALMEHLTTCFPGVPTPSQEILRHTLNTLVRERKIYPTPDGYFIVTP [L11W], the abundance fitness was -0.418 ± 0.076. To SPISQSQFIPYGEILCLAISAMNSARKPVTQEALMEHLTTCFPGVPTPSQEILRHTLNTLVRERKIYPTPDGYFIVTP [L11Y] belongs -0.008 ± 0.1.
